Each block holds one substance with its values, some of them ahead of it.
How the values were obtained:
Assay in all cases: SDS-PAGE without pre-heating, with zymogram; crude enzymes (high concentration of (NH4)2SO4) in loading buffer with 10% SDS, not pre-heated, 10% polyacrylamide gel; compared with samples heated at 100 °C for 5 min; dimer band active on xylan plate
[1] = molecular target: Xyn10A, GH10 family xylanase from Aspergillus fumigatus Z5 (Aspergillus fumigatus Z5)
[2] = molecular target: Xyn10AdC, CBM1 removed Xyn10A (Aspergillus fumigatus Z5)
[3] = molecular target: Xyn10AdLC, CBM1 and linker region removed Xyn10A (Aspergillus fumigatus Z5)

- stoichiometry N [1]: 2
Substance: Xyn10A, GH10 family xylanase from Aspergillus fumigatus Z5 (enzyme)

- stoichiometry N [2]: 2
Substance: Xyn10AdC, CBM1 removed Xyn10A (domain or fragment)

- stoichiometry N [3]: 2
Substance: Xyn10AdLC, CBM1 and linker region removed Xyn10A (domain or fragment)
